Assay results as given in article doi:10.1101/2021.04.27.441571.

How the values were obtained:
[1] = molecular target: wild type (WT) talin R3 domain
talin R3-IVVI domain [2] = molecular target: talin R3-IVVI domain
talin R3-IVVI domain [3] = molecular target: talin R3-IVVI domain; remark: listed apart in the source
talin R3-IVVI domain [4] = molecular target: talin R3-IVVI domain; remark: listed apart in the source
talin R3-IVVI domain [5] = molecular target: talin R3-IVVI domain; remark: listed apart in the source

Molecule “DnaJ (from UniProt P08622 1-376) (natural protein)” has an intersection force of R3-WT with DnaJ; without chaperone ∼6 pN [1] of 4 pN and a percent of force-ramp events of R3-IVVI with hysteresis, with DnaJ; control ∼9% (talin R3-IVVI domain [2]) of 86%.

“DnaK (from UniProt P0A6Y8 1-638) (natural protein)” was tested, and the intersection force of R3-WT with DnaK; without chaperone ∼6 pN [1] was 4 pN, the unfolding force of R3-IVVI in the presence of DnaK, DnaJ and ADP (DnaKJ-ADP) (talin R3-IVVI domain [3]) was 6 pN and the unfolding force of R3-IVVI with DnaK after addition of ATP (apo-DnaK: ∼6 pN) (talin R3-IVVI domain [3]) was 7.5 pN. The intersection force of R3-IVVI with DnaK-ADP complex (chevron plot) (talin R3-IVVI domain [4]) was 7.1 pN, the intersection force of R3-IVVI with DnaK-ATP (chevron plot) (talin R3-IVVI domain [4]) was 7.6 pN and the percent of force-ramp events of R3-IVVI with hysteresis, with DnaK; control ∼9% (talin R3-IVVI domain [2]) was 91%.

“Hsp40 (from UniProt P25685 1-340) (natural protein)” was tested, and the intersection force of talin R3-IVVI (chevron plot), with Hsp40; control 9.8 pN (talin R3-IVVI domain [5]) was 7.8 pN.

“Hsp70 (from UniProt P0DMV8 1-641) (natural protein)” showed an intersection force of talin R3-IVVI (chevron plot), with Hsp70; control 9.8 pN (talin R3-IVVI domain [5]) of 7.2 pN.

B1: DsbA (oxidized) (enzyme)
chain: AQYEDGKQYTTLEKPVAGAPQVLEFFSFFCPHCYQFEEVLHISDNVKKKLPEGVKMTKYHVNFMGGDLGKDLTQAWAVAMALGVEDKVTVPLFEGVQKTQTIRSASDIRDVFINAGIKGEEYDAAWNSFVVKSLVAQQEKAAADVQLRGVPAMFVNGKYQLNPQGMDTSNMDVFVQQYADTVKYLSEKK
modifications: oxidized (0.3% H2O2 overnight)
B1 was tested, and the intersection force of R3-WT with DsbA; without chaperone ∼6 pN [1] was 10 pN.
